Columns and labels:
Assay in all cases: cell-based or functional assay
[1] = target: ARK5(h) (human) (UniProt O60285)
[2] = target: Ab1(h) (human) (UniProt P00519)
[3] = target: BrSK2(h) (human) (UniProt Q8IWQ3)
[4] = target: CDK2/cyclinE(h) (human) (UniProt P24941)
[5] = target: CDK6/cyclinD3(h) (human) (UniProt Q00534)
[6] = target: CHK2(R145W)(h) (human) (UniProt O96017)
[7] = target: CSK(h) (human) (UniProt P41240)
[8] = target: CaMKIδ(h) (human) (UniProt Q8IU85)
[9] = target: DYRK2(h) (human) (UniProt Q92630)
[10] = target: EGFR(T790M)(h) (human) (UniProt P00533)
[11] = target: EGFR(T790M,L858R)(h) (human) (UniProt P00533)
[12] = target: EphB3(h) (human) (UniProt P54753)
[13] = target: FGFR1(h) (human) (UniProt P11362)
[14] = target: Fes(h) (human) (UniProt P07332)
[15] = target: Flt4(h) (human) (UniProt P35916)
[16] = target: Fyn(h) (human) (UniProt P06241)
[17] = target: GRK6(h) (human) (UniProt P43250)
[18] = target: Hck(h) activated (human) (UniProt P08631)
[19] = target: IR(h) (human) (UniProt P06213)
[20] = target: IRAK4(h) (human) (UniProt Q9NWZ3)
[21] = target: Itk(h) (human) (UniProt Q08881)
[22] = target: JNK2α2(h) (human) (UniProt P45984)
[23] = target: KDR(h) (human) (UniProt P35968)
[24] = target: MAPKAP-K3(h) (human) (UniProt Q16644)
[25] = target: MARK1(h) (human) (UniProt Q9P0L2)
[26] = target: MKK6(h) (human) (UniProt P52564)
[27] = target: MRCKβ(h) (human) (UniProt Q9Y5S2)
[28] = target: MST1(h) (human) (UniProt Q13043)
[29] = target: Met(D1246N)(h) (human) (UniProt P08581)
[30] = target: Met(Y1248H)(h) (human) (UniProt P08581)
[31] = target: Met(h) (human) (UniProt P08581)
[32] = target: PASK(h) (human) (UniProt Q96RG2)
[33] = target: PDGFRα(V561D)(h) (human) (UniProt P16234)
[34] = target: PKBα(h) (human) (UniProt P31749)
[35] = target: PKCγ(h) (human) (UniProt P05129)
[36] = target: PKCη(h) (human) (UniProt P24723)
[37] = target: PKCτ(h) (human)
[38] = target: PKG1α(h) (human) (UniProt Q13976)
[39] = target: Pim-3(h) (human) (UniProt Q86V86)
[40] = target: Plk3(h) (human) (UniProt Q9H4B4)
[41] = target: RIPK2(h) (human) (UniProt O43353)
[42] = target: ROCK-II(h) (human) (UniProt O75116)
[43] = target: Ret(V804L)(h) (human) (UniProt P07949)
[44] = target: SAPK3(h) (human) (UniProt P53778)
[45] = target: SGK2(h) (human) (UniProt Q9HBY8)
[46] = target: SRPK1(h) (human) (UniProt Q96SB4)
[47] = target: SRPK2(h) (human) (UniProt P78362)
[48] = target: STK33(h) (human) (UniProt Q9BYT3)
[49] = target: TAO2(h) (human) (UniProt Q9UL54)
[50] = target: TBK1(h) (human) (UniProt Q9UHD2)
[51] = target: Tec(h)activated (human) (UniProt P42680)
[52] = target: Tie2(Y897S)(h) (human) (UniProt Q02763)
[53] = target: ULK3(h) (human) (UniProt Q6PHR2)
[54] = target: ZAP-70(h) (human) (UniProt P43403)
[55] = target: cKit(D816H)(h) (human) (UniProt P10721)
[56] = target: cKit(V560G)(h) (human) (UniProt P10721)

KDR(h) (human), sequence (P35968 790-1356 limits assumed): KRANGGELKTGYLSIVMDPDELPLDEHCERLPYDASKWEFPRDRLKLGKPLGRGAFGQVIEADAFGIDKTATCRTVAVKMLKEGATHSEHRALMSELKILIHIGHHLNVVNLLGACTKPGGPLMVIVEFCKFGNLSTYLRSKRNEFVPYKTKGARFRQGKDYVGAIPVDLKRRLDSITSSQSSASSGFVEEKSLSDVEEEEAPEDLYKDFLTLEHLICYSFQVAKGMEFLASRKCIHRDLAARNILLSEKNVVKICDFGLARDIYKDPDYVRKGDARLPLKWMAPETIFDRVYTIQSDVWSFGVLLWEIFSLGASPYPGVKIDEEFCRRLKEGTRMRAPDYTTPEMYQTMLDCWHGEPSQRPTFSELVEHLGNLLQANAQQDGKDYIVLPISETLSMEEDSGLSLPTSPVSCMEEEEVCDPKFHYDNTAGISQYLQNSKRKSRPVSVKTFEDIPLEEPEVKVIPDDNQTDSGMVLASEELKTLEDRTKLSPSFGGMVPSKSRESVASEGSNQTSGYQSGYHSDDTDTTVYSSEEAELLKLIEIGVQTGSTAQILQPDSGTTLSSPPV
ROCK-II(h) (human), sequence (O75116 11-552 limits assumed): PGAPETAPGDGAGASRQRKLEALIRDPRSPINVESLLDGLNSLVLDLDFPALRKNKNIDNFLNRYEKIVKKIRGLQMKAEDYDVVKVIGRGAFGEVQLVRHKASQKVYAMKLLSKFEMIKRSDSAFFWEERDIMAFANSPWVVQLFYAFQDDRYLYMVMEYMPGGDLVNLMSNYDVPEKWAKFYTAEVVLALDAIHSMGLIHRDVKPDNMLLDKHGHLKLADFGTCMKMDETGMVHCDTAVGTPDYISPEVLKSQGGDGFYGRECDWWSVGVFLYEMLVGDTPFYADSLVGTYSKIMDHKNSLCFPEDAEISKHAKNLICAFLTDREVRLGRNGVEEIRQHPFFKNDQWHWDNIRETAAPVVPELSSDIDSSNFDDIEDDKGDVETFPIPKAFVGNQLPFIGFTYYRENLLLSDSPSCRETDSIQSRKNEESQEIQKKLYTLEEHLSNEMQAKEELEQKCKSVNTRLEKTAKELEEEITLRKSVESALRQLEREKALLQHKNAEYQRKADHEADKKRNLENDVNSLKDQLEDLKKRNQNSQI
CSK(h) (human), sequence (P41240 whole entry): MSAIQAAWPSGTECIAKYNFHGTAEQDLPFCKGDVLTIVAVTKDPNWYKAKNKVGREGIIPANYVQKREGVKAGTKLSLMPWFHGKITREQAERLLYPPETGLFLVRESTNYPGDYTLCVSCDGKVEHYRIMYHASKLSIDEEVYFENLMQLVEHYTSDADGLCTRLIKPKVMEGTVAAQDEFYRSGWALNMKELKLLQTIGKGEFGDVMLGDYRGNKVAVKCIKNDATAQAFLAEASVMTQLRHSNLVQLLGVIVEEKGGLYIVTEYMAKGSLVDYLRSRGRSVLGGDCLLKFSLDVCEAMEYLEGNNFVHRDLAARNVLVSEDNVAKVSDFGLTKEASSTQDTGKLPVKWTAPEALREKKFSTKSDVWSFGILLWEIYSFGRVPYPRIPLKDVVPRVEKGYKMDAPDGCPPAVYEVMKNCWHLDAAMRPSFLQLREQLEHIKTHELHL
Fyn(h) (human), sequence (P06241 whole entry): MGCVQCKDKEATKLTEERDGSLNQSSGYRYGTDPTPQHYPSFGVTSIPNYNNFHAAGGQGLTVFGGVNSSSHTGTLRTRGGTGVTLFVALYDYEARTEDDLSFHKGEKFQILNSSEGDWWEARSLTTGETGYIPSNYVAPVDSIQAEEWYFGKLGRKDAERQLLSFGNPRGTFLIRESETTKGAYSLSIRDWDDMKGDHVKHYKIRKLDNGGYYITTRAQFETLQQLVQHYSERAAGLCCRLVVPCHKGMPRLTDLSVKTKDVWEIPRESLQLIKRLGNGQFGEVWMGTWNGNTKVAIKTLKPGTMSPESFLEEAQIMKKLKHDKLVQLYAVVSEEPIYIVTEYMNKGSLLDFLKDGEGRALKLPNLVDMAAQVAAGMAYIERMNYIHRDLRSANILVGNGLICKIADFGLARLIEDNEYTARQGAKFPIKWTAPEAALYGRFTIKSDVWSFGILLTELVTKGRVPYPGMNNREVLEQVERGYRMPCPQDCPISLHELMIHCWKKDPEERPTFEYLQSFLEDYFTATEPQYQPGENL
MKK6(h) (human), sequence (P52564 whole entry): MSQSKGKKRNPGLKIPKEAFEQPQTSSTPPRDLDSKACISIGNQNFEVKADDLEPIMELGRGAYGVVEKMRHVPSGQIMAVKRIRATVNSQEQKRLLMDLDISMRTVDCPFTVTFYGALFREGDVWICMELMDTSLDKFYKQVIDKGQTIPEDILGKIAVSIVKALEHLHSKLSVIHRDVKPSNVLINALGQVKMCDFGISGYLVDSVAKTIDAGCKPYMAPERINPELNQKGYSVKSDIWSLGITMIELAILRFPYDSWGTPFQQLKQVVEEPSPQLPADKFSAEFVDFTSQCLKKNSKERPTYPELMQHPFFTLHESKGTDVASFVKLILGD
IRAK4(h) (human), sequence (Q9NWZ3 whole entry): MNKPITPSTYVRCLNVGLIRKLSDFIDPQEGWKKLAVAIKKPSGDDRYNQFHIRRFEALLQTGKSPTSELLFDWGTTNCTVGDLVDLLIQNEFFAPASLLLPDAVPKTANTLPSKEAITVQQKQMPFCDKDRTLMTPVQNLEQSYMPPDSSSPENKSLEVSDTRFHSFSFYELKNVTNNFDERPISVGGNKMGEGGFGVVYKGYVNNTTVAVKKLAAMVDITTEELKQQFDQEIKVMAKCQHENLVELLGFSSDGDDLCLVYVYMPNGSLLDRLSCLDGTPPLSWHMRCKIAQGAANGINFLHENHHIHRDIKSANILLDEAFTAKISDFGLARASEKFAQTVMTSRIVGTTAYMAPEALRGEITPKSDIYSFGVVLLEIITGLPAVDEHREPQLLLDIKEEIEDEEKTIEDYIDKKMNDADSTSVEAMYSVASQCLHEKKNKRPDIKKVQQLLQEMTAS
Tie2(Y897S)(h) (human), sequence (Q02763 771-1124 Y897S limits assumed): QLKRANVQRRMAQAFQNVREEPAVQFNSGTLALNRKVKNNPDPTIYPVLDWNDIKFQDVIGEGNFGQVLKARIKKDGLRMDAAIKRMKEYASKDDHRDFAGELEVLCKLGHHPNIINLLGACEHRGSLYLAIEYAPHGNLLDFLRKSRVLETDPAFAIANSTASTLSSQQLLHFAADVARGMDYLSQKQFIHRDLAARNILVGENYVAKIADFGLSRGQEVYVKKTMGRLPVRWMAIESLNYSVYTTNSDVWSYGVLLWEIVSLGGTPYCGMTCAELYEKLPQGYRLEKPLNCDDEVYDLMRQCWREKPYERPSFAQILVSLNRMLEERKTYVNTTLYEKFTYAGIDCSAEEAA
TBK1(h) (human), sequence (Q9UHD2 whole entry): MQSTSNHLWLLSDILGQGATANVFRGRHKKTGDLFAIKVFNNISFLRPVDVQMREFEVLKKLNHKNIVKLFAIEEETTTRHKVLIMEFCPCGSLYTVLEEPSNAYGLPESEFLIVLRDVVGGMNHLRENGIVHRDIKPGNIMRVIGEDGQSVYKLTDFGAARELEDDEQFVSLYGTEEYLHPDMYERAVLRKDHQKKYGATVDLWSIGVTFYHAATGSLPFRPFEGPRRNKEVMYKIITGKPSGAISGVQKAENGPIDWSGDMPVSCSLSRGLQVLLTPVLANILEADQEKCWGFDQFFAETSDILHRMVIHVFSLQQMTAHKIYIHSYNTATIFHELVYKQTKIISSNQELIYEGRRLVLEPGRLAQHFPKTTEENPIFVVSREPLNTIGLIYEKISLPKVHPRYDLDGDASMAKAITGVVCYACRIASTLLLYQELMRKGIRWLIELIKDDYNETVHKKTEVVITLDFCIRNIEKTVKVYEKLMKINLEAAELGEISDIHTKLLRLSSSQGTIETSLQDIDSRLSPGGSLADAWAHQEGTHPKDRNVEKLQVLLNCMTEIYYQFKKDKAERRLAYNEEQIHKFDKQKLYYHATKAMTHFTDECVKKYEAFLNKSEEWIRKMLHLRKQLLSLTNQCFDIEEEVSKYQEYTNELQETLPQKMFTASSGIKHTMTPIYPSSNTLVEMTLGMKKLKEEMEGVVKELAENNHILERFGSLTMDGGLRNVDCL
ZAP-70(h) (human), sequence (P43403 whole entry): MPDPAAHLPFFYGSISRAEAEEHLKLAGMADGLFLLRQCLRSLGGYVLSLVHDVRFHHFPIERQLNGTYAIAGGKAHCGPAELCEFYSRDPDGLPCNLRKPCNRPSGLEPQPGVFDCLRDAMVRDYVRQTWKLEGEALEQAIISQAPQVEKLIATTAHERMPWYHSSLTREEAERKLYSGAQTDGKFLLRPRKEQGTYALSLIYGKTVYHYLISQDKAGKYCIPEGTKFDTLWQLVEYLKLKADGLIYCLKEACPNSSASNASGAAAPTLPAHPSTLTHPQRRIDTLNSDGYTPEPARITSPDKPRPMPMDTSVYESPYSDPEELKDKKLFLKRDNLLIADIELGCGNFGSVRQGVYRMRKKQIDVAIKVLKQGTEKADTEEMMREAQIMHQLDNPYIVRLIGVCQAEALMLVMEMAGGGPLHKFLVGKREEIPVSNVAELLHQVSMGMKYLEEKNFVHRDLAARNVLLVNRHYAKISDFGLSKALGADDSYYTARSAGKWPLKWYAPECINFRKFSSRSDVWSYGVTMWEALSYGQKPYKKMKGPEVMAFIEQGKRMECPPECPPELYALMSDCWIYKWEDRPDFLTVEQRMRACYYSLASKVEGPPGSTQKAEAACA
SAPK3(h) (human), sequence (P53778 whole entry): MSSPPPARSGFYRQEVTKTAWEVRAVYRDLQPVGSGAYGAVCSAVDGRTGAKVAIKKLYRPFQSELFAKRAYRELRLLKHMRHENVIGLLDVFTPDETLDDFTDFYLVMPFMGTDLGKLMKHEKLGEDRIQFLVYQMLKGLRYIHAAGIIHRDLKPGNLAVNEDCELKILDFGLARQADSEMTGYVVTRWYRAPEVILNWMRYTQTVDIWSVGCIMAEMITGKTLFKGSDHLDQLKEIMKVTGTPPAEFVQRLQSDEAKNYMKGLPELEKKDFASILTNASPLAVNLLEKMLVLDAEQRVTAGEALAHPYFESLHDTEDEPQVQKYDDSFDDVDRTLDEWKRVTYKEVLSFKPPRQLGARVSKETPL

Q: Which % activity [1] does the source give for MMI-0500 (peptide) here?
A: 20%

Q: And the % activity [2]?
A: 16%

Q: What about the % activity [3] of the same substance?
A: 84%

Q: What about the % activity [4] of the same substance?
A: 19%

Q: What about the % activity [5] of the same substance?
A: 23%

Q: And the % activity [6]?
A: 3%

Q: And the % activity [7]?
A: 2%

Q: What about the % activity [8] of the same substance?
A: 0%

Q: What about the % activity [9] of the same substance?
A: 127%

Q: What about the % activity [10] of the same substance?
A: 70%

Q: And the % activity [11]?
A: 53%

Q: And the % activity [12]?
A: 79%

Q: What about the % activity [13] of the same substance?
A: 18%

Q: And the % activity [14]?
A: 23%

Q: And the % activity [15]?
A: 73%

Q: What about the % activity [16] of the same substance?
A: 83%

Q: And the % activity [17]?
A: 174%

Q: What about the % activity [18] of the same substance?
A: 67%

Q: And the % activity [19]?
A: 95%

Q: And the % activity [20]?
A: 3%

Q: And the % activity [21]?
A: 7%

Q: And the % activity [22]?
A: 81%

Q: What about the % activity [23] of the same substance?
A: 15%

Q: And the % activity [24]?
A: 9%

Q: And the % activity [25]?
A: 110%

Q: And the % activity [26]?
A: 18%

Q: What about the % activity [27] of the same substance?
A: -10%

Q: And the % activity [28]?
A: 3%

Q: What about the % activity [29] of the same substance?
A: 90%

Q: And the % activity [30]?
A: 126%

Q: And the % activity [31]?
A: 27%

Q: And the % activity [32]?
A: 9%

Q: What about the % activity [33] of the same substance?
A: 146%

Q: And the % activity [34]?
A: 30%

Q: What about the % activity [35] of the same substance?
A: 6%

Q: What about the % activity [36] of the same substance?
A: 45%

Q: What about the % activity [37] of the same substance?
A: 7%

Q: And the % activity [38]?
A: 25%

Q: And the % activity [39]?
A: 37%

Q: What about the % activity [40] of the same substance?
A: 122%

Q: What about the % activity [41] of the same substance?
A: 30%

Q: And the % activity [42]?
A: 2%

Q: What about the % activity [43] of the same substance?
A: 20%

Q: And the % activity [44]?
A: 24%

Q: And the % activity [45]?
A: -1%

Q: What about the % activity [46] of the same substance?
A: 80%

Q: What about the % activity [47] of the same substance?
A: 80%

Q: And the % activity [48]?
A: 16%

Q: And the % activity [49]?
A: 15%

Q: And the % activity [50]?
A: 16%

Q: What about the % activity [51] of the same substance?
A: 33%

Q: What about the % activity [52] of the same substance?
A: 80%

Q: And the % activity [53]?
A: 177%

Q: And the % activity [54]?
A: 1%

Q: And the % activity [55]?
A: 194%

Q: What about the % activity [56] of the same substance?
A: 198%

Source: patent US20160200782A1
